# Measurements: publication PMC12149301
# Target: CDTb D623A + D734A Ca^2+-binding double mutant, active form (Clostridioides difficile)
# Experiment: cryo-EM structure
substance,measurement,value
"CDTb D623A + D734A Ca^2+-binding double mutant, active form (natural protein)",stoichiometry N,7
